{"source": "patent US20230416341A1", "about": "“IMPROVED THROMBIN INHIBITORS FOR TREATMENT OF THROMBOEMBOLIC CONDITIONS” (priority 2020, published 2023)", "binders": {"B1": {"name": "SEQ ID No:1 (MDL-2) Y32 (sulfated at Y32) (peptide)", "peptide": "YPESDSAKDDGNQEKEKALLVKVQERSDDGDYDEYDNDETTHTPDPSAPTARPRIREHQA", "modifications": "not checked"}, "B2": {"name": "SEQ ID No:1 (MDL-2) Un (unsulfated) (protein)", "chain": "B1 peptide"}, "B3": {"name": "SEQ ID No:1 (MDL-2) DS (sulfated at Y32 and Y35) (peptide)", "peptide": "B1 peptide", "modifications": "not checked"}, "B4": {"name": "SEQ ID No:1 (MDL-2) Y35 (sulfated at Y35) (peptide)", "peptide": "B1 peptide", "modifications": "not checked"}, "B5": {"name": "SEQ ID No:2 (MDL-1) Y33 (sulfated at Y33) (peptide)", "peptide": "YPERDSAKDGNEEQERALPVNVQERGEVADADYDDYDEEGTTPTVDPTAQTARPRLQGNQS", "modifications": "not checked"}, "B6": {"name": "SEQ ID No:2 (MDL-1) Y36 (sulfated at Y36) (peptide)", "chain": "B5 peptide"}, "B7": {"name": "SEQ ID No:2 (MDL-1) Un (unsulfated) (protein)", "chain": "B5 peptide"}, "B8": {"name": "SEQ ID No:2 (MDL-1) DS (sulfated at Y33 and Y36) (peptide)", "chain": "B5 peptide"}}, "key": {"[1]": {"molecular_target": "T1, human α-thrombin (Haematologic Technologies) (human), P00734", "test": "inhibition of amidolytic activity of human α-thrombin (0.2 nM enzyme, chromogenic substrate Tos-Gly-Pro-Arg-pNA), tight-binding Morrison fit"}, "[2]": {"molecular_target": "T1, human α-thrombin (Haematologic …)", "test": "thrombin inhibition; sulfated at Y32", "conditions": "chains peptide; modification not given"}, "[3]": {"molecular_target": "T1, human α-thrombin (Haematologic …)", "test": "thrombin inhibition; unsulfated", "conditions": "chains peptide; modification not given"}, "[4]": {"molecular_target": "T1, human α-thrombin (Haematologic …)", "test": "thrombin inhibition; sulfated at Y32 and Y35", "conditions": "chains peptide; modification not given"}, "[5]": {"molecular_target": "T1, human α-thrombin (Haematologic …)", "test": "inhibition of amidolytic activity of human α-thrombin; reference is unsulfated SEQ ID No:1"}, "[6]": {"molecular_target": "T1, human α-thrombin (Haematologic …)", "test": "thrombin inhibition; sulfated at Y35", "conditions": "chains peptide; modification not given"}, "[7]": {"molecular_target": "T1, human α-thrombin (Haematologic …)", "test": "thrombin inhibition; sulfated at Y33", "conditions": "chains peptide; modification not given"}, "[8]": {"molecular_target": "T1, human α-thrombin (Haematologic …)", "test": "thrombin inhibition; sulfated at Y36", "conditions": "chains peptide; modification not given"}, "[9]": {"molecular_target": "T1, human α-thrombin (Haematologic …)", "test": "thrombin inhibition; unsulfated; unit from column head of Figure 1 table", "conditions": "chains peptide; modification not given"}, "[10]": {"molecular_target": "T1, human α-thrombin (Haematologic …)", "test": "thrombin inhibition; sulfated at Y33 and Y36", "conditions": "chains peptide; modification not given"}, "[11]": {"molecular_target": "T1, human α-thrombin (Haematologic …)", "test": "inhibition of amidolytic activity of human α-thrombin; reference is unsulfated SEQ ID No:2"}}}
{"binder": "B1", "values": [{"measurement": "Ki", "setting": "[1]", "value": "< 3", "unit": "nM"}, {"measurement": "Ki", "setting": "[2]", "value": 1.99, "unit": "nM"}]}
{"binder": "B2", "values": [{"measurement": "Ki", "setting": "[3]", "value": 27.2, "unit": "nM"}]}
{"binder": "B3", "values": [{"measurement": "Ki", "setting": "[1]", "value": "< 3", "unit": "nM"}, {"measurement": "Ki", "setting": "[4]", "value": 0.156, "unit": "nM"}, {"measurement": "fold more potent than the unsulfated counterpart", "setting": "[5]", "value": "> 100", "unit": "fold"}]}
{"binder": "B4", "values": [{"measurement": "Ki", "setting": "[1]", "value": "< 3", "unit": "nM"}, {"measurement": "Ki", "setting": "[6]", "value": 2.77, "unit": "nM"}]}
{"binder": "B5", "values": [{"measurement": "Ki", "setting": "[1]", "value": "< 20", "unit": "nM"}, {"measurement": "Ki", "setting": "[7]", "value": 3.59, "unit": "nM"}]}
{"binder": "B6", "values": [{"measurement": "Ki", "setting": "[8]", "value": 17.6, "unit": "nM"}, {"measurement": "Ki", "setting": "[1]", "value": "< 20", "unit": "nM"}]}
{"binder": "B7", "values": [{"measurement": "Ki", "setting": "[9]", "value": 73.8, "unit": "nM"}]}
{"binder": "B8", "values": [{"measurement": "Ki", "setting": "[10]", "value": 2.06, "unit": "nM"}, {"measurement": "Ki", "setting": "[1]", "value": "< 20", "unit": "nM"}, {"measurement": "fold more potent than the unsulfated counterpart", "setting": "[11]", "value": 10, "unit": "fold"}]}
